Values quoted from earlier work as cited in article PMC4212800.

Target: CD4 D1-D2 (Homo sapiens) (UniProt P01730)

## Ibalizumab
  Kd: 0.0825 nM
